Measurements as given in PMC11470950.

T1: RVFV nucleoprotein (N) (Rift Valley fever virus, UniProt D3K5I7 1-245)
T1 sequence: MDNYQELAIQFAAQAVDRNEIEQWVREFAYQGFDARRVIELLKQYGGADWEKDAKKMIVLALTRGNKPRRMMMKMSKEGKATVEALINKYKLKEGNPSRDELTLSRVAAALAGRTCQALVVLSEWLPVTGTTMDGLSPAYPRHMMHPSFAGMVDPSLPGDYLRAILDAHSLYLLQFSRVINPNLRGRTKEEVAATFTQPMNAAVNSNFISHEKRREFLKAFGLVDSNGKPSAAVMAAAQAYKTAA


Target: T1, RVFV nucleoprotein (N)
Assay: fluorescence bead binding assay

Binder	Kd [nM]
CTCCAGCGTAAACTACTGAAGACTGTGCCGGAAAGATC (ssDNA) [RV-2 (RVF 2)]	15.4
CAGAAAAAGTGCCGACCGAACGATGTGTAAGCGCTATGAGA (ssDNA) [RV-5]	41
AGATGTCCTGCGTCGAGACACTTCTGCATTACTACGTTGG (ssDNA) [RV-3 (RVF 3)]	18.6
